This passage reports IC50 and EC50 results from patent US20240116985A1, “STAPLED PEPTIDES AND METHODS THEREOF” (priority 2020, published 2024).

Starred links: 1 amine or outer side, 2 acyl side, 3 side chain; linkers in the order of their positions; H or OH if unused. Positions of bridges follow the written chain, without caps; N, C: chain ends. Non-standard residues stand in square brackets, D forms with d. Primed or numbered codes have the meaning given here. PyrS2″ = (S)-3-amino-1-((pent-4-en-1-yloxy)carbonyl)pyrrolidine-3-carboxylic acid (stapling residue), C=CCCCOC(=O)N1CC[C@@](N[*:1])(C(=O)[*:2])C1; B5(4) = 2,2-bis(4-pentenyl)glycine = 2-amino-2-(pent-4-en-1-yl)hept-6-enoic acid (stitching residue), C=CCCCC(CCCC=C)(N[*:1])C(=O)[*:2]; B5(5) = 2,2-bis(4-pentenyl)glycine, 2-amino-2-(pent-4-en-1-yl)hept-6-enoic acid (stitching residue), C=CCCCC(CCCC=C)(N[*:1])C(=O)[*:2]; TfeGA = (S)-2-amino-3-((carboxymethyl)(2,2,2-trifluoroethyl)amino)propanoic acid, O=C([C@H](CN(CC(=O)[*:3])CC(F)(F)F)N[*:1])[*:2]; PyrS2 = (S)-3-amino-1-((pent-4-en-1-yloxy)carbonyl)pyrrolidine-3-carboxylic acid, C=CCCCOC(=O)N1CC[C@@](N[*:1])(C(=O)[*:2])C1; B5(22) = 2-amino-2-(pent-4-en-1-yl)hept-6-enoic acid (two alkene side chains), C=CCCCC(CCCC=C)(N[*:1])C(=O)[*:2]; B5(3) = 2,2-bis(4-pentenyl)glycine (stitching residue), C=CCCCC(CCCC=C)(N[*:1])C(=O)[*:2]; B5 = 2-amino-2-(pent-4-en-1-yl)hept-6-enoic acid, C=CCCCC(CCCC=C)(N[*:1])C(=O)[*:2]; Phe(3-COOH) = N[C@@H](Cc1cccc(C(=O)O)c1)C(=O)O; Phe(2-CF3) = N[C@@H](Cc1ccccc1C(F)(F)F)C(=O)O; Phe(3,4-Me2) = Cc1ccc(C[C@H](N)C(=O)O)cc1C; Phe(3-Br) = N[C@@H](Cc1cccc(Br)c1)C(=O)O; Bta = N[C@@H](Cc1csc2ccccc12)C(=O)O; αAllylPro = C=CC[C@@]1(C(=O)O)CCCN1; tBuAla = CC(C)(C)C[C@H](N)C(=O)O; 3Thi = N[C@@H](Cc1ccsc1)C(=O)O; S8 = C=CCCCCCC[C@](C)(N)C(=O)O; hSer = N[C@@H](CCO)C(=O)O; Aib = CC(C)(N)C(=O)O

In test [1] the target is full-length beta-Catenin (Uniprot ID P35222) (Homo sapiens (Human)) (UniProt P35222). As to the kind of experiment: fluorescence polarization competition; full-length beta-catenin, 5FAM-TCF4(10-53) probe.
Target sequence in this assay (P35222 2-781 limits assumed): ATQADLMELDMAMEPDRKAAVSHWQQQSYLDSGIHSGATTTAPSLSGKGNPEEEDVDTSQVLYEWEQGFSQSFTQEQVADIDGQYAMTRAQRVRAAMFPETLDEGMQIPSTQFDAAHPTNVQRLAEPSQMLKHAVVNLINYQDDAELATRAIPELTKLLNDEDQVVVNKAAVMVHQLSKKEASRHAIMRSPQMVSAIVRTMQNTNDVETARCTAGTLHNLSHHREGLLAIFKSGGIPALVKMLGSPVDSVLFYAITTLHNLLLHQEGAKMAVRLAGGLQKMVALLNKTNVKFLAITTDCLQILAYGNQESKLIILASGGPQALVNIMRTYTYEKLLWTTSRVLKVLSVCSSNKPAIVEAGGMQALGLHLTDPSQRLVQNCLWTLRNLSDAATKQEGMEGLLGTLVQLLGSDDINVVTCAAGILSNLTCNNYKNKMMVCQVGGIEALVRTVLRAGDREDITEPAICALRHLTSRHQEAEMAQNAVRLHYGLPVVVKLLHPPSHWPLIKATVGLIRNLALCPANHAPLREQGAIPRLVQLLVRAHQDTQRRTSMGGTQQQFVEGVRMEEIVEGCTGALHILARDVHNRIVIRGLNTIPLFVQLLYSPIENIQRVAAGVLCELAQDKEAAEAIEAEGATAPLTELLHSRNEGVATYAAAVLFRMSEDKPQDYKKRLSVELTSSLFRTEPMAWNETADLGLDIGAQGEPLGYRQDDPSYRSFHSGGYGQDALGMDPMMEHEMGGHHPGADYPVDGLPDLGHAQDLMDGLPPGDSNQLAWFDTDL
The target is the same in test [2]. The test can be described thus: fluorescence polarization competition; 10 nM full-length beta-catenin + 10 nM 5FAM-TCF4(10-53) probe.
Target sequence in this assay (P35222 whole entry): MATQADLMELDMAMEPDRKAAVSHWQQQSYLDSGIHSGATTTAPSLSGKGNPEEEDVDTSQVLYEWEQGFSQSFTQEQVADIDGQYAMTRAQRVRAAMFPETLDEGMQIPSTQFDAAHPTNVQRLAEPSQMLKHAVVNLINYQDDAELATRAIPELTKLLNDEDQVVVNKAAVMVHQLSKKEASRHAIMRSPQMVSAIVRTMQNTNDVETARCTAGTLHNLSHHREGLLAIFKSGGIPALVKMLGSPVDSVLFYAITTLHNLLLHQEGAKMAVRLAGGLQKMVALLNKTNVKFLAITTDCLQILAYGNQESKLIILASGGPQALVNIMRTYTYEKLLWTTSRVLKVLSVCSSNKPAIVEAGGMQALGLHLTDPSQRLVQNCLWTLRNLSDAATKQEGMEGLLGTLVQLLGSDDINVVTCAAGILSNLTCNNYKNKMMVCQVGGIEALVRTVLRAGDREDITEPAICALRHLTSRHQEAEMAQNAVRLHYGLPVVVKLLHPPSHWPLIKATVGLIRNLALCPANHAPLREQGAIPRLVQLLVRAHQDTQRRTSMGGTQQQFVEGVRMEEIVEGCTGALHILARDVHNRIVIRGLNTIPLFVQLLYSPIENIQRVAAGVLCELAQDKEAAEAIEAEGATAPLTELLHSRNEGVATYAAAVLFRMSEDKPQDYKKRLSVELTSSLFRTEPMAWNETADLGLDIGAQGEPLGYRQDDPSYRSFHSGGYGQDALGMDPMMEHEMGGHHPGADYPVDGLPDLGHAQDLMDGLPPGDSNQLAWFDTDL
The target is the same in test [3]. As to the kind of experiment: fluorescence polarization competition; full-length beta-catenin, competitor 5FAM-TCF4(10-53) probe.
Target sequence in this assay (P35222 whole entry): as above
For test [4] the target is unchanged. As to the kind of experiment: fluorescence polarization competition; full-length beta-catenin with 5FAM-labeled TCF4 residues 10-53 probe as competitor.
Target sequence in this assay (P35222 whole entry): as above
The target is the same in test [5]. As to the kind of experiment: fluorescence polarization competition; full-length beta-catenin, competitor probe 5FAM-TCF4(10-53).
Target sequence in this assay (P35222 whole entry): as above

Turning to Ac-[αAllylPro]D[tBuAla][B5]NTAAFH[PyrS2][3Thi][Bta]Q-NH2 (staple 1-4, 4-11; also: earlier eluting HPLC isomer) [I-2146], in test [1], the IC50 worked out at 248 nM.

In test [1], Ac-[αAllylPro]D[tBuAla][B5]NTAAFT[PyrS2][3Thi][Bta]F-NH2 (staple 1-4, 4-11; also: earlier eluting HPLC isomer) [I-2144] had an IC50 of 2020 nM.

Consider Ac-[αAllylPro]D[tBuAla][B5(5)]D[TfeGA]AAFN[PyrS2″][3Thi][Bta]L-NH2 (staple 1-4, 4-11; also: staple isomer composition, earlier-eluting HPLC peak) [I-946], for which, in test [2], the EC50 was determined as 798 nM. In test [1], this molecule had a 50% inhibitory concentration (IC50) of 798 nM.

Ac-[αAllylPro]D[tBuAla][B5(5)]D[TfeGA]AAFN[PyrS2″][3Thi][Bta]A-NH2 (staple 1-4, 4-11; also: staple isomer composition, later-eluting HPLC peak) [I-945]: in test [2], the EC50 was 1080 nM. The half-inhibitory concentration (IC50) in test [1] was determined as 1080 nM.

Molecule Ac-[αAllylPro]D[tBuAla][B5]TTAAFN[PyrS2][3Thi][Bta]Q-NH2 (staple 1-4, 4-11; also: earlier eluting HPLC isomer) [I-2148] yielded an IC50 in test [1] of 10000 nM.

Take Ac-[αAllylPro]D[tBuAla][B5]NTAAFN[PyrS2][3Thi][Bta]H-NH2 (staple 1-4, 4-11; also: later eluting HPLC isomer) [I-2141]: the IC50 in test [1] stood at 310 nM.

In test [1], Ac-[αAllylPro]D[tBuAla][B5]NTAAFN[PyrS2][3Thi][Bta]A-NH2 (staple 1-4, 4-11; also: later eluting HPLC isomer) [I-2143] showed an IC50 of 217 nM.

For the molecule Ac-[αAllylPro]D[tBuAla][B5(4)]D[TfeGA]AAFN[PyrS2″][3Thi][Bta][hSer]-NH2 (staple 1-4, 4-11; also: earlier-eluting staple isomer composition) [I-950], in test [2], the EC50 came out at 1630 nM. In test [1], this molecule came in with a half-maximal inhibitory concentration (IC50) of 1630 nM.

Ac-[αAllylPro]D[tBuAla][B5]D[Phe(3-COOH)]AAFL[PyrS2][Phe(3-Br)]FQ-NH2 (staple 1-4, 4-11) [I-2153] gave an IC50 in test [1] of 1480 nM.

For Ac-[αAllylPro]D[tBuAla][B5]NTAAFH[PyrS2][3Thi][Bta]Q-NH2 (staple 1-4, 4-11; also: later eluting HPLC isomer) [I-2147], the IC50 in test [1] came out at 390 nM.

Regarding Ac-[αAllylPro]D[tBuAla][B5]D[Phe(3-COOH)]AAFL[PyrS2][Phe(3-Br)][Phe(2-CF3)]Q-NH2 (staple 1-4, 4-11) [I-2155], in test [1], the IC50 amounted to 10000 nM.

As for Ac-[αAllylPro]DL[B5(5)]DEAAFN[S8]F[Bta]H[Aib]-NH2 (staple 1-4, 4-11) [I-743], the IC50 in test [3] came out at 85 nM. Further, the 50% effective concentration (EC50) in test [4] is 85 nM.

For the molecule Ac-[αAllylPro]D[tBuAla][B5(5)]D[TfeGA]AAFN[PyrS2″][3Thi][Bta]T-NH2 (staple 1-4, 4-11; also: staple isomer composition, earlier-eluting HPLC peak) [I-942], the EC50 in test [2] came to 1280 nM. Moreover, in test [1], the IC50 came out at 1280 nM.

Take Ac-[αAllylPro]D[tBuAla][B5]NTAAFN[PyrS2][3Thi][Bta]H-NH2 (staple 1-4, 4-11; also: earlier eluting HPLC isomer) [I-2140]: the half-maximal inhibitory concentration (IC50) in test [1] is 233 nM.

On to Ac-[αAllylPro]D[tBuAla][B5(22)]D[TfeGA]AAFN[PyrS2][3Thi][Bta]S-NH2 (staple 1-4, 4-11; also: staple isomer composition, later-eluting HPLC peak) [I-941], for which, in test [2], the concentration for a half-maximal effect (EC50) was 2110 nM. Also, the half-maximal inhibitory concentration (IC50) in test [1] was 2110 nM.

Consider Ac-[αAllylPro]D[tBuAla][B5(5)]D[TfeGA]AAFN[PyrS2″][3Thi][Bta]L-NH2 (staple 1-4, 4-11; also: staple isomer composition, later-eluting HPLC peak) [I-947], for which the EC50 in test [2] worked out at 1050 nM. In test [1], this molecule had an IC50 of 1050 nM.

Regarding Ac-[αAllylPro]D[tBuAla][B5]TTAAFN[PyrS2][3Thi][Bta]Q-NH2 (staple 1-4, 4-11; also: later eluting HPLC isomer) [I-2149], the IC50 in test [1] was determined as 7180 nM. This lies in the single-digit micromolar range.

As to Ac-[αAllylPro]D[tBuAla][B5(5)]D[TfeGA]AAFN[PyrS2″][3Thi][Bta]T-NH2 (staple 1-4, 4-11; also: staple isomer composition, later-eluting HPLC peak) [I-943], the EC50 in test [2] came to 1990 nM. Further, the IC50 in test [1] was 1990 nM.

Ac-[αAllylPro]D[tBuAla][B5]NTAAFN[PyrS2][3Thi][Bta]W-NH2 (staple 1-4, 4-11; also: later eluting HPLC isomer) [I-2139] returned a half-maximal inhibitory concentration (IC50) in test [1] of 970 nM.

In turn, Ac-[αAllylPro]D[tBuAla][B5(3)]NTAAFN[PyrS2″][3Thi][Bta]W-NH2 (staple 1-4, 4-11; also: earlier eluting HPLC isomer) [I-2138] returned an IC50 in test [1] of 1010 nM.

Ac-[αAllylPro]D[tBuAla][B5(4)]D[Phe(3-COOH)]AAFL[PyrS2][Phe(2-CF3)][Phe(3,4-Me2)]S-NH2 (staple 1-4, 4-11) [I-2293] gave a half-inhibitory concentration (IC50) in test [5] of 15 nM.

Molecule Ac-[αAllylPro]DL[B5(5)]DEAAFN[S8]F[Bta]Q[Aib]-NH2 (staple 1-4, 4-11; also: earlier-eluting staple isomer) [I-736] showed an IC50 in test [3] of 440 nM. The EC50 in test [4] was 440 nM.

Molecule Ac-[αAllylPro]DI[B5(4)]DEAA[tBuAla]Q[S8]F[Bta]Q-NH2 (staple 1-4, 4-11) [I-727] registered a concentration for half-maximal inhibition (IC50) in test [3] of 5000 nM. The molecule further had an EC50 in test [4] of 5000 nM.

As for Ac-[αAllylPro]D[tBuAla][B5(22)]D[TfeGA]AAFN[PyrS2][3Thi][Bta]S-NH2 (staple 1-4, 4-11; also: staple isomer, earlier eluting HPLC peak) [I-940], the EC50 in test [2] came to 1740 nM. In addition, in test [1], the half-maximal inhibitory concentration (IC50) worked out at 1740 nM.

Turning to Ac-[αAllylPro]D[tBuAla][B5]D[TfeGA]AAFN[PyrS2][3Thi][Bta][hSer]-NH2 (staple 1-4, 4-11; also: later-eluting staple isomer composition) [I-951], the concentration for a half-maximal effect (EC50) in test [2] amounted to 1470 nM. The 50% inhibitory concentration (IC50) in test [1] stood at 1470 nM.

As for Ac-[αAllylPro]D[tBuAla][B5(5)]D[TfeGA]AAFN[PyrS2″][3Thi][Bta][dT]-NH2 (staple 1-4, 4-11; also: staple isomer composition, later-eluting HPLC peak) [I-949], the EC50 in test [2] stood at 2260 nM. The molecule also gave a 50% inhibitory concentration (IC50) in test [1] of 2260 nM.

In the case of Ac-[αAllylPro]D[tBuAla][B5(5)]D[TfeGA]AAFN[PyrS2″][3Thi][Bta][dT]-NH2 (staple 1-4, 4-11; also: staple isomer composition, earlier-eluting HPLC peak) [I-948], in test [2], the half-maximal effective concentration (EC50) is 2430 nM. The molecule further registered an IC50 in test [1] of 2430 nM.

As for Ac-[αAllylPro]DL[B5(5)]DEAAFN[S8]F[Bta]Q[Aib]-NH2 (staple 1-4, 4-11; also: later-eluting staple isomer) [I-737], in test [3], the IC50 is 353 nM. Moreover, in test [4], the EC50 was determined as 353 nM.

As for Ac-[αAllylPro]D[tBuAla][B5]NTAAFT[PyrS2][3Thi][Bta]F-NH2 (staple 1-4, 4-11; also: later eluting HPLC isomer) [I-2145], the half-inhibitory concentration (IC50) in test [1] came to 2070 nM. In other words, the single-digit micromolar range.

In the case of Ac-[αAllylPro]D[tBuAla][B5(5)]D[TfeGA]AAFN[PyrS2″][3Thi][Bta]A-NH2 (staple 1-4, 4-11; also: staple isomer composition, earlier-eluting HPLC peak) [I-944], the EC50 in test [2] worked out at 761 nM. The molecule also came in with an IC50 in test [1] of 761 nM.
